Data reported in patent publication US6013288A, “Process for manufacturing beer” (Suntory Limited, priority 1995, dated 2000).

Assay: Decomposition of purine nucleosides in wort by nucleoside phosphorylase
Type: biochemical
Settings: 7 units/ml, 3 hours at 30° C., wort extract concentration 12.5%
Procedure: Nucleoside phosphorylase derived from calf spleen (Boehringer) was added to wort having an extract concentration of 12.5% to a concentration of 7 units/ml, and allowed to react for 3 hours at 30° C. The amount of purine compounds in the wort to which enzyme was added and a wort held for 3 hours at 30° C. without adding enzyme as the control were measured using the method described in Experiment 1.

B1: nucleoside phosphorylase derived from calf spleen: Nucleoside phosphorylase derived from calf spleen (Boehringer), EC 2.4.2.1 (protein, UniProt P55859 1-289, looked up)
Purine nucleoside …: MANGYTYEDYQDTAKWLLSHTEQRPQVAVICGSGLGGLVNKLTQAQTFDYSEIPNFPESTVPGHAGRLVFGILNGRACVMMQGRFHMYEGYPFWKVTFPVRVFRLLGVETLVVTNAAGGLNPNFEVGDIMLIRDHINLPGFSGENPLRGPNEERFGVRFPAMSDAYDRDMRQKAHSTWKQMGEQRELQEGTYVMLGGPNFETVAECRLLRNLGADAVGMSTVPEVIVARHCGLRVFGFSLITNKVIMDYESQGKANHEEVLEAGKQAAQKLEQFVSLLMASIPVSGHTG
decomposition ratio of each purine nucleoside: roughly 60%
